Measured values: publication PMC4981888

Molecular target: GST-SVV (UniProt O15392)
Assay: native gel or EMSA; 0.5 μg recombinant protein in native sample buffer (no SDS, no β-mercaptoethanol) on a 15% or 6% native polyacrylamide gel; Western blot with anti-SVV or anti-cortactin; monomer and dimer bands

stoichiometry N: 2
Substance: GST-SVV (from UniProt O15392 1-142)
